In paper doi:10.1101/2023.02.21.529469:

Target: T1, His-Lmo2795 (RpiR family regulator) (UniProt Q8Y3P0)
T1 sequence: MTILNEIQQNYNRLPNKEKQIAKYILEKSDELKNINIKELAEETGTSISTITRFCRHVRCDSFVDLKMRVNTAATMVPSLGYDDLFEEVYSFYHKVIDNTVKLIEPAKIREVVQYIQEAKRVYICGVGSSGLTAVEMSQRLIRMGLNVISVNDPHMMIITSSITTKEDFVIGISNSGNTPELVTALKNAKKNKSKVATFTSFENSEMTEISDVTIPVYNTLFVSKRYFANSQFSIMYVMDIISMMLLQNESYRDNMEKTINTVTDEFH
Assay: EMSA

“CGGAACACCCAACAAATTACCAATCGAATAAACTAACAAAGTCCTTTCAAGCGAAAGGACTTTTTATTTTTAACAGCAACGTCATTTTTTAAAGCTAGTTTCCGCAACTATCCACGCTAAAACATGAAAATCATTTTCATTTAATTGATATTGATAAAATCATTTTCTTATGATATAGTCTGTTTGAAAACGCATACTTTACACTGAAACACAGTATAGAGGAGGAGTATCAGTGGGCAATTCTGTTATGGAAAAAATCAAAGGTGGGTTAG (double strand) [lmo2795-nanE upstream (promoter) fragment]” was tested, and the binding was “binds”.
